From patent publication US20260345809 (published 2026) come the findings set out here.

For assay [1], the target named is T1, GPC3 (human, UniProt P51654). The experiment in a line: FACS, HepG2 cells. For orientation: In flow cytometry, cells or beads pass a laser one at a time.
In assay [2] the target is T1, GPC3. Description: FACS, GPC3-CHO-K1 cells.
The target of assay [3] is T1, GPC3. The experiment in a line: FACS, Huh-7 cells.
Assay [4] has as its target T1, GPC3. The experiment in a line: FACS, HepG2 cells. The source holds these as a separate data set.

B1: Y035 (antibody, V domains shown)
VH: EVQLVQSGAEVKKPGASVKVSCKASGYTHSDYEMHWVRQAPGQGLEWMGAIHPGSGDTAYNQRFKGRVTITADKSTSTAYMELSSLRSEDTAVYYCARFYSYAYWGQGTLVTVSA
VL: DIVMTQTPLSLPVTPGEPASISCRSSQSLVHSNGNTYLQWYLQWYLQKPGQSPQLLIYKVSNRFSGVPDRFSGSGSGTDFTLKISRVEAEDVGVYYCSQSIYVPYTFGQGTKLEIKR
For orientation: EC50 means the concentration needed to bring the measured effect to its halfway point. Lower therefore signals an effect from little substance. With B1, the EC50 with GPC3 [1] was found to be 1.25 nM; with GPC3 [2], 1.46 nM; with GPC3 [3], 1.18 nM.

B2: GC33 (antibody, V domains shown)
VH: QVQLVQSGAEVKKPGASVKVSCKASGYTFTDYEMHWVRQAPGQGLEWMGALDPKTGDTAYSQKFKGRVTLTADKSTSTAYMELSSLTSEDTAVYYCTRFYSYTYWGQGTLVTVSS
VL: DVVMTQSPLSLPVTPGEPASISCRSSQSLVHSNRNTYLHWYLQKPGQSPQLLIYKVSNRFSGVPDRFSGSGSGTDFTLKISRVEAEDVGVYYCSQNTHVPPTFGQGTKLEIKR
In the case of B2, the EC50 with GPC3 [1] was found to be 0.745 nM; in the assay with GPC3 [2] it was 0.956 nM; in the assay with GPC3 [4], 0.269 µg/mL; in the assay with GPC3 [3], 0.953 nM.

B3: GC33-ZLA (antibody, V domains shown)
VH: QVQLVQSGAEVKKPGASVKVSCKASGYTFTDYEMHWVRQAPGQGLEWMGALDPKTGDTAYSQKFKGRVTLTADKSTSTAYMELSSLTSEDTAVYYCTRFYSYTYWGQGTLVTVSS
VL: DVVMTQSPLSLPVTPGEPASISCRSSQSLVHSNRNTYLHWYLQKPGQSPQLLIYKVSNRFSGVPDRFSGSGSGTDFTLKISRVEAEDVGVYYCSQNTHVPPTFGQGTKLEIKR
modifications: ADC, ZLA conjugate of GC33
With B3, in the assay with GPC3 [4], the EC50 is 0.143 µg/mL.

B4: GC33-L4-D4 (antibody, V domains shown)
VH: QVQLVQSGAEVKKPGASVKVSCKASGYTFTDYEMHWVRQAPGQGLEWMGALDPKTGDTAYSQKFKGRVTLTADKSTSTAYMELSSLTSEDTAVYYCTRFYSYTYWGQGTLVTVSS
VL: DVVMTQSPLSLPVTPGEPASISCRSSQSLVHSNRNTYLHWYLQKPGQSPQLLIYKVSNRFSGVPDRFSGSGSGTDFTLKISRVEAEDVGVYYCSQNTHVPPTFGQGTKLEIKR
modifications: ADC, MC-MMAF conjugate of GC33
Regarding B4, the response with GPC3 [4] was half-maximal at 0.112 µg/mL (EC50).
